What is called Kd is a measure of binding affinity in units of concentration.

Consider five molecules from patent US20120288536, “Stabilized Stat3 Decoy Oligonucleotides And Uses Therefor” (Carnegie Melton, published 2012).

Series [1] addresses T1, pSTAT3 (tyrosine-phosphorylated STAT3) (UniProt P40763 P40763:1-770). As to the kind of experiment: SPR; Langmuir 1:1, 4 C, 20 mM HEPES pH 7.0, 200 mM NaCl, 10 mM MgCl2; replicate 1.15E-7 (Table 5A), 3.20E-7 (Table 5B); Table 3 1.29E-7 to 9.91E-7. The following applies: tags: recombinant, immobilized on CM5 chip for SPR, chain copies: 2 inferred. How it is done:
(§1) To more quantitatively assess the affinity of the decoy for pSTAT3 protein, the binding affinity by surface plasmon resonance (SPR) was determined. Solutions of STAT3 decoy were prepared at multiple concentrations and passed over recombinant tyrosine phosphorylated STAT3 immobilized in a sensor chip.
(§2) The amount of parent STAT3 decoy and modified STAT3 decoys bound to recombinant pSTAT3 increased directly with increasing concentrations of STAT3 decoy in test solutions. Data analysis by fitting the sensorgrams to a Langmuir 1:1 model of binding yielded kinetic and affinity values (Table 4).
(§3) To determine the specific binding affinities of the parent and the modified decoys (DN4 and DS18) to the pSTAT3 protein, surface plasmon resonance (SPR) analyses were performed using a BIAcore 3000 instrument (GE Healthcare, Piscataway, N.J.). All buffer and sample solutions were filtered and degassed prior to each run, with more optimal pH and instrument parameters determined empirically. The pSTAT3 protein at 10 μg/ml in 10 mM sodium acetate buffer (pH 4.0), was immobilized on freshly activated chip surface. […] Binding of STAT3 decoy, DN4 and DS18 to pSTAT3 protein were determined at several concentrations such as […] 0.625 μM, 1.25 μM, 2.5 μM 5.0 μM and 10.0 μM of analyte solutions, at a flow rate of 30 μL/min in a running buffer (20 mM HEPES, pH 7.0, 200 mM NaCl, 10 mM MgCl₂). […]
In general terms: SPR reads the build-up and loss of mass on a sensor chip optically.

Series [2] concerns the target T2, STAT3 (UniProt P40763 P40763:1-770). Nature of the series: EMSA. The following applies: chain copies: 2 inferred. Background: Mobility shift assays separate free from complexed probe on a gel.
Series [3] deals with T1, pSTAT3 (tyrosine-phosphorylated STAT3). As to the kind of experiment: SPR; Langmuir 1:1, 4 C, 20 mM HEPES pH 7.0, 200 mM NaCl, 10 mM MgCl2. The following applies: tags: recombinant, immobilized on CM5 chip for SPR, chain copies: 2 inferred, hairpin, GAAA loop linking the strands. How it is done: as §1, §2, §3
Series [4] addresses T2, STAT3. Nature of the series: EMSA; longer sequence effective in blocking STAT3 activation. The settings on record: chain copies: 2 inferred.

T2 sequence (P40763 whole entry, one chain of several): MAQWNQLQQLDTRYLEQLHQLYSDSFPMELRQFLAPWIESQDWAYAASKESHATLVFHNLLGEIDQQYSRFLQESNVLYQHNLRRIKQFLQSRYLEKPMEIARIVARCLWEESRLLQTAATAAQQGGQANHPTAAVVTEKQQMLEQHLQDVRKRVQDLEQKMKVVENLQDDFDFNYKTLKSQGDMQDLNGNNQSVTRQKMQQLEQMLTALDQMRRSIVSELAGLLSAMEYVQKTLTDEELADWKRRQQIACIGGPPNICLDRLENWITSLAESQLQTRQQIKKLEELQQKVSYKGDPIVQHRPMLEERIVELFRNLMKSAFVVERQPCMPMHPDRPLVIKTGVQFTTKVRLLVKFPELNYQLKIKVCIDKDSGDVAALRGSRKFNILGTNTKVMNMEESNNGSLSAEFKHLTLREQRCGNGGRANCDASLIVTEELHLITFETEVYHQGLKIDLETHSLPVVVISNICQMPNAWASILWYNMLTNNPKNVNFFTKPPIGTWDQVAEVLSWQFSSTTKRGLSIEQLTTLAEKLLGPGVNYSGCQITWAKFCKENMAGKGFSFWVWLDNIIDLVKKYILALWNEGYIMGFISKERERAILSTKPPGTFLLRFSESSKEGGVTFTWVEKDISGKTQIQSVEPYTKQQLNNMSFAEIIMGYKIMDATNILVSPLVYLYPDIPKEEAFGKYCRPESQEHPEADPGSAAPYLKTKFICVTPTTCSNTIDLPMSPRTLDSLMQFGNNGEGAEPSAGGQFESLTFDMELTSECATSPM
T1 sequence (P40763 whole entry, one chain of several): as above

B1: parent STAT3 decoy (PTO) (dsDNA)
DNA 1: CATTTCCCGTAAATC
DNA 2: GATTTACGGGAAATG
modifications: PS first three and last three bases of both strands
For B1, the Kd in series [1] turned out to be 122 nM.

B2: STAT3 decoy (hSIE) (dsDNA)
DNA 1: CATTTCCCGTAAATC
DNA 2: GATTTACGGGAAATG
B2: the binding result with STAT3 [2] is “binds”.

B3: DN4 (structured_DNA)
DNA: CATTTCCCGTAAATCGAAAGATTTACGGGAAATG
modifications: PS x3 at 5' end of one strand and 3' end of the other (Table 2: 5' and 3' ends of both strands)
As for B3, the Kd in series [3] amounted to 182 nM.

B4: Mutant 3 (mutant control decoy) (dsDNA)
DNA 1: CATTTCCCTTAAATC
DNA 2: GATTTAAGGGAAATG
As to B4, the binding result with STAT3 [2] is reported as “no binding”.

B5: longer 31-mer hSIE duplex (dsDNA)
DNA 1: AGCTTGTCGACATTTCCCGTAAATCGTCGAG
DNA 2: CTCGACGATTTACGGGAAATGTCGACAAGCT
As for B5, the binding result in the series with STAT3 [4] is “binds”.
